# Experimental data published in patent US20220389089A1 (SURFACE ONCOLOGY, published 2022).
# T1: IL-27RA on NCI-H2228 lung cancer cells (human, UniProt Q6UWB1 33-636)
# T1 sequence: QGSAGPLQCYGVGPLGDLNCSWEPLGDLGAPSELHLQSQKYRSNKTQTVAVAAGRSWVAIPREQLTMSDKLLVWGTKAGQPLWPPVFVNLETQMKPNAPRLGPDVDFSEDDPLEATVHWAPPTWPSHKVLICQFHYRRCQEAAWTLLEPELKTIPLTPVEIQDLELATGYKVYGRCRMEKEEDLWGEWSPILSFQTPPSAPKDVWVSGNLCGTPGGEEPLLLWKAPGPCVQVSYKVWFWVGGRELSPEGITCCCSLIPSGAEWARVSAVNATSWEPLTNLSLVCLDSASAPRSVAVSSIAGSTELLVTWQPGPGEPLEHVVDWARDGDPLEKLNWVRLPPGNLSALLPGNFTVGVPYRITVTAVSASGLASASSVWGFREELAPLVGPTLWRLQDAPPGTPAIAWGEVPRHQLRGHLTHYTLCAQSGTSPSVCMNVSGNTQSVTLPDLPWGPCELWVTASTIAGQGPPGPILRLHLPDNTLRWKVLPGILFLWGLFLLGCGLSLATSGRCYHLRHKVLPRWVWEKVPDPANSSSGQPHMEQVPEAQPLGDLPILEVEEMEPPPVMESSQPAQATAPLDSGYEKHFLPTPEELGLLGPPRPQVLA
# Target: T1, IL-27RA on NCI-H2228 lung cancer cells
# Experiment: cell-based or functional assay
binder,measurement,value
recombinant human IL-27 (ligand) chain 1: RKGPPAALTLPRVQCRASRYPIAVDCSWTLPPAPNSTSPVSFIATYRLGMAARGHSWPCLQQTPTSTSCTITDVQLFSMAPYVLNVTAVHPWGSSSSFVPFITEHIIKPDPPEGVRLSPLAERQLQVQWEPPGSWPFPEIFSLKYWIRYKRQGAARFHRVGPIEATSFILRAVRPRARYYVQVAAQDLTDYGELSDWSLPATATMSLGK chain 2: FPRPPGRPQLSLQELRREFTVSLHLARKLLSEVRGQAHRFAESHLPGVNLYLLPLGEQLPDVSLTFQAWRRLSDPERLCFISTTLQPFHALLGGLGTQGRWTNMERMQLWAMRLDLRDLQRHLRFQVLAAGFNLPEEEEEEEEEEEEERKGLLPGALGSALQGPAQVSWPQLLSTYRLLHSLELVLSRAVRELLLLSKAGHSVWPLGFPTLSPQP,"EC50 of STAT1 phosphorylation (pSTAT1-PE GeoMean, flow cytometry) in NCI-H2228 lung cancer cells cultured with graded concentrations of IL-27",5.3 ng/mL
